Reference: patent US5493008A, “Two non-contiguous regions contribute to nidogen binding to a single EGF-like motif of the laminin γ1 chain” (The University Of Virginia Patent Foundation, priority 1994, dated 1996)
Like-named read-outs stand apart in the source and are kept apart here. Each block holds one molecule with its values, some of them ahead of it. Where no end group is shown, it is not given here. The star is where a group is joined. Succinimide(1-Et,3-yl) = CCN1C(=O)CC(*)C1=O

Tests used:
[1] = target: T1, nidogen (Mus musculus, UniProt P10493); settings: Fox et al. 1991; read-out: κD of the high affinity binding site for nidogen; cited from earlier work
T1 sequence (P10493 29-1245): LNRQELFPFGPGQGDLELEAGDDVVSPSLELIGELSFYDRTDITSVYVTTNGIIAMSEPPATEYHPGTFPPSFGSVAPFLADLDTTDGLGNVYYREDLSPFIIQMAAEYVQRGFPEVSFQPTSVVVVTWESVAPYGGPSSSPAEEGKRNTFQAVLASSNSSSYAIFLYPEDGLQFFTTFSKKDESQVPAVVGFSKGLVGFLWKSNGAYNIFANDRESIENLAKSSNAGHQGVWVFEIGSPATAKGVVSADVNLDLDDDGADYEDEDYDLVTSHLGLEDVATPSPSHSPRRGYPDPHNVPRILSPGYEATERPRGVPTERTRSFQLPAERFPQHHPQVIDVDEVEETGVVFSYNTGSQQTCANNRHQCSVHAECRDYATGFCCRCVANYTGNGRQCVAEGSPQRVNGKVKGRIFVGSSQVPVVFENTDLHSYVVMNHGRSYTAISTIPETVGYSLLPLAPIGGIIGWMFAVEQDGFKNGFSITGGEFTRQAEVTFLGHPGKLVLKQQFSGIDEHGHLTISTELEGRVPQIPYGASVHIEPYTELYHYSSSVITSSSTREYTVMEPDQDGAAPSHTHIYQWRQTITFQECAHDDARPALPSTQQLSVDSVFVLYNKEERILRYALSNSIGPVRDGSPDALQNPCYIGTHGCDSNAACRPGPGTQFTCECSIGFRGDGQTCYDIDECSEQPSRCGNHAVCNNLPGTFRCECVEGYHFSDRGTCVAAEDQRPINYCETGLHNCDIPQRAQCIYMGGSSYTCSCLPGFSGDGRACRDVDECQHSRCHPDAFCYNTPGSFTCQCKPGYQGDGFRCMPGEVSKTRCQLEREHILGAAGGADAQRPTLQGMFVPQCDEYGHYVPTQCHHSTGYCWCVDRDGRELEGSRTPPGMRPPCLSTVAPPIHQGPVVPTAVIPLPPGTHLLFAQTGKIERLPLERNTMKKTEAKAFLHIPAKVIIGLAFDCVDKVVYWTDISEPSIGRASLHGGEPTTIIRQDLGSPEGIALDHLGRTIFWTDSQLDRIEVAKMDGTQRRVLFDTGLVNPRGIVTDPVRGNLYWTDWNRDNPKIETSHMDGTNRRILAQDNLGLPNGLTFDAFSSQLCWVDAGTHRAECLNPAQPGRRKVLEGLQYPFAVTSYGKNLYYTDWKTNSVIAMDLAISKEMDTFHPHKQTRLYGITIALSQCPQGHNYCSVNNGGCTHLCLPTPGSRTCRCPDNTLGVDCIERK

[2] = target: T2, recombinant nidogen (Mus musculus (Mouse)) (UniProt P10493); assay: radioligand competition assay, average of 14 separate assays: non-labeled fragment P1 varied, 0.2 nM recombinant nidogen, 125I-laminin fragment P1
T2 sequence: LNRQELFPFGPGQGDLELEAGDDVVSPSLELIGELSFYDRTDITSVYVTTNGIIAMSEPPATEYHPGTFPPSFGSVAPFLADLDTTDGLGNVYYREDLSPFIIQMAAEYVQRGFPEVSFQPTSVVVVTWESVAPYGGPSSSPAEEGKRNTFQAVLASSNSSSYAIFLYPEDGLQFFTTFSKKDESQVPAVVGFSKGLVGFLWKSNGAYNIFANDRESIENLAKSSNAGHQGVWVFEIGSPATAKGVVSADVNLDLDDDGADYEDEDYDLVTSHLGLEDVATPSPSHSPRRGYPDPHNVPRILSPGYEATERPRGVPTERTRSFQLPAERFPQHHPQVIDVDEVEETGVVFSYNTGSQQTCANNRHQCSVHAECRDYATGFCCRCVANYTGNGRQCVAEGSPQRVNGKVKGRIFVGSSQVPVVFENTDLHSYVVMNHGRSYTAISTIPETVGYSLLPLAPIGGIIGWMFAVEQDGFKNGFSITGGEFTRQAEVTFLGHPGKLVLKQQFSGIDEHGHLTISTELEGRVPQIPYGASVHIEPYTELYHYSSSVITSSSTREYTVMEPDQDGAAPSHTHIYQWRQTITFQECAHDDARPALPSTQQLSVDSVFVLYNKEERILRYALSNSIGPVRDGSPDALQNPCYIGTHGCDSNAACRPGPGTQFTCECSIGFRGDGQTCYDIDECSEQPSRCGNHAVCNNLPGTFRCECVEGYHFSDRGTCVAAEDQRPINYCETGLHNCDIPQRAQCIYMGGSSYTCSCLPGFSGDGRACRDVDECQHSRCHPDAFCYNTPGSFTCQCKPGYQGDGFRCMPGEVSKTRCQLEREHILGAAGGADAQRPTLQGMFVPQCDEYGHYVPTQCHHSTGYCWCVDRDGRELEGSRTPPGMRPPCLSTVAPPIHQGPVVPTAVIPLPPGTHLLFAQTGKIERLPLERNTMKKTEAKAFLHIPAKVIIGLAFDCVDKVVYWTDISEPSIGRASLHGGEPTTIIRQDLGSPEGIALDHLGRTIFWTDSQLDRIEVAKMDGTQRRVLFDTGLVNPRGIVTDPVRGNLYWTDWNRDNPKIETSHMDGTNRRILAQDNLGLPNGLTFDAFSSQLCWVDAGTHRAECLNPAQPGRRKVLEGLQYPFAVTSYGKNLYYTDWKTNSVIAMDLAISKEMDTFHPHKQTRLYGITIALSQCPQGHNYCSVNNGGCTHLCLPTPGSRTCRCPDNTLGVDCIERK

[3] = target: T2, recombinant nidogen (Mus musculus (Mouse)); assay: radioligand competition assay: non-labeled fragment P1 varied, 0.2 nM recombinant nidogen, 125I-laminin fragment P1
[4] = target: T2, recombinant nidogen (Mus musculus (Mouse)); assay: as above; remark: listed apart in the source
[5] = target: T3, recombinant nidogen (Mus musculus (Mouse), UniProt P10493); assay: radioligand competition assay: inhibitor varied, 0.2 nM recombinant nidogen, 125I-laminin fragment P1
T3 sequence: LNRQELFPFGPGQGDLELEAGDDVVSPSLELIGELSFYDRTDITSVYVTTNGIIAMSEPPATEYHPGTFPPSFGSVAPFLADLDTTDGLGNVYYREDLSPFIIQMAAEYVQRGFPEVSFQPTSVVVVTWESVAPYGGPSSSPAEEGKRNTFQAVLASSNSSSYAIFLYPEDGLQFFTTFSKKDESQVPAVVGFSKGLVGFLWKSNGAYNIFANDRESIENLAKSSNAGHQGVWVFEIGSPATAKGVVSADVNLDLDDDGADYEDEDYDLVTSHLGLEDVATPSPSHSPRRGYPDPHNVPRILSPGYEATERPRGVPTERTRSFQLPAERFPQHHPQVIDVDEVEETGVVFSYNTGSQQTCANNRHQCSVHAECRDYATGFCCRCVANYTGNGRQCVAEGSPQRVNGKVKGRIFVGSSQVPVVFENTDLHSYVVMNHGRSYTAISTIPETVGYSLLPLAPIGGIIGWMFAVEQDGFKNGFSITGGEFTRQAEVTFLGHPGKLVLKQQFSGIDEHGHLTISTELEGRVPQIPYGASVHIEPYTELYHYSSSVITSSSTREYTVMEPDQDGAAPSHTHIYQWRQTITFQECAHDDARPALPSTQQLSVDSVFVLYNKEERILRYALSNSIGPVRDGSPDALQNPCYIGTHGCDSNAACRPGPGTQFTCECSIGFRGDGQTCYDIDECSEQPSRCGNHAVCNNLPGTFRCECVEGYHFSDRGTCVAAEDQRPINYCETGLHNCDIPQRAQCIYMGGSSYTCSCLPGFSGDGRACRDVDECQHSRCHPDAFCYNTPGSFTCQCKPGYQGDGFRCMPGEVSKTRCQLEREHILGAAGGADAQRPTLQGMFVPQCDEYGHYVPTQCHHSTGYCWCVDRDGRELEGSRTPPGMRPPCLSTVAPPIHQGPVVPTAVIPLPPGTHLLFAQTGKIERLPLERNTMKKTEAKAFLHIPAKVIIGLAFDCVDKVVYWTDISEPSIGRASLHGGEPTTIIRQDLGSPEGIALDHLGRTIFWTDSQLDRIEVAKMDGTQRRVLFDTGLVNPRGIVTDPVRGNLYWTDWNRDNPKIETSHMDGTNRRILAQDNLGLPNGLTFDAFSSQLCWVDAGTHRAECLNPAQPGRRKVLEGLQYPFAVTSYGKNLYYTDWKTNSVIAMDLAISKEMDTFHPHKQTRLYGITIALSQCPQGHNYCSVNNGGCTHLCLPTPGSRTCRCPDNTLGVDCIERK
Experimental: (§1) A radioligand competition assay was used for measurement of relative binding affinities (Mann K. et al. (1988), Eur. J. Biochem., 178, 71–80; Fox, J. W. et al. (1991), EMBO J., 10, 3137–3146). A fixed concentration of recombinant nidogen (0.2 nM) was incubated overnight at 4° C. with inhibitors at varying concentrations, followed by the addition of ^125I-labeled laminin fragment P1 (0.01 nM; 10,000–20,000 c.p.m.) for the same incubation period. Bound and non-bound fragment P1 was then separated by antibodies against nidogen.

[6] = target: T3, recombinant nidogen; assay: radioligand competition assay, nitrated γ1III3-5
Experimental: as §1

[7] = target: T3, recombinant nidogen; assay: radioligand competition assay, Tyr-acetylated γ1III3-5
Experimental: as §1

[8] = target: T3, recombinant nidogen; assay: radioligand competition assay, reduced and alkylated against the non-reduced chimera
Experimental: as §1

[9] = target: T3, recombinant nidogen; assay: radioligand competition assay: inhibitor varied, 0.2 nM recombinant nidogen, 125I-laminin fragment P1; remark: listed apart in the source
Experimental: as §1

[10] = target: T3, recombinant nidogen; assay: radioligand competition assay
Experimental: as §1

[11] = target: T3, recombinant nidogen; assay: radioligand competition assay: inhibitor varied, 0.2 nM recombinant nidogen, 125I-laminin fragment P1; remark: listed apart in the source
Experimental: as §1

[12] = target: T3, recombinant nidogen; assay: radioligand competition assay, synthetic heptapeptide variant
Experimental: as §1

[13] = target: T3, recombinant nidogen; assay: radioligand competition assay, reduced and alkylated against the non-reduced mutant
Experimental: as §1

[14] = target: T2, recombinant nidogen (Mus musculus (Mouse)); assay: radioligand competition assay: inhibitor varied, 0.2 nM recombinant nidogen, 125I-laminin fragment P1
[15] = target: T2, recombinant nidogen (Mus musculus (Mouse)); assay: radioligand competition assay, synthetic heptapeptide variant
[16] = target: T3, recombinant nidogen; assay: radioligand competition assay; end of the range tied to this mutant by its IC50 in Table IV
Experimental: as §1

Molecule: laminin 1: laminin of chain composition α1β1γ1
Kd [1]: 0.5 nM

Molecule: laminin fragment P1
IC50 [2]: 0.05 nM | IC50 [3]: 0.05 nM | IC50 [4]: 0.08 nM

B1: nitrated γ1III3-5 (other)
chain: PCPCPGGSSCAIVPKTKEVVCTHCPTGTAGKRCELCDDGYFGDPLGSNGPVRLCRPCQCNDNIDPNAVGNCNRLTGECLKCIYNTAGFYCDRCKEGFFGNPLAPNPADKCKACACNPYGTVQQQSSCNPVTGQCQCLPHVSGRDCGTCDPGYYNLQSGQGCE
modifications: tyrosines nitrated with tetranitromethane
IC50 [5]: 3 nM | fold decrease in binding activity against unmodified γ1III3-5 [6]: 75 fold

Molecule: PCQCNDNTDPNAVGNCNRLTGECL (disulfide (positions not given here)) [synthetic loop a,b, oxidized (792-815)]
IC50 [5]: 380 nM | fold higher IC50 than fragment P1 [10]: 5000 fold | IC50 [9]: 270 nM

Molecule: NIDPNVV
IC50 [11]: 16000 nM | fold decrease in activity against the heptapeptide NIDPNAV [12]: 16 fold

Molecule: NIDQNAV
IC50 [11]: 2400 nM | fold decrease in activity against the heptapeptide NIDPNAV [12]: 3 fold

Molecule: NINPNAV
IC50 [14]: 100000 nM | fold reduction in activity against the heptapeptide NIDPNAV [15]: 100 fold

Other lines, results leading:

IC50 [5]: 3 nM | fold decrease in binding activity against unmodified γ1III3-5 [7]: 75 fold
B2: γ1III3-5, Tyr acetylation (other)
chain: PCPCPGGSSCAIVPKTKEVVCTHCPTGTAGKRCELCDDGYFGDPLGSNGPVRLCRPCQCNDNIDPNAVGNCNRLTGECLKCIYNTAGFYCDRCKEGFFGNPLAPNPADKCKACACNPYGTVQQQSSCNPVTGQCQCLPHVSGRDCGTCDPGYYNLQSGQGCE
modifications: tyrosine hydroxyl groups acetylated with acetic acid anhydride

fold decrease in activity on reduction and alkylation [8]: 6 fold | IC50 [9]: 6700 nM
B3: γ1III3ab4cd, reduced (other)
chain: PC(Succinimide(1-Et,3-yl))PC(Succinimide(1-Et,3-yl))PGGSSC(Succinimide(1-Et,3-yl))AIVPKTKEVVC(Succinimide(1-Et,3-yl))THC(Succinimide(1-Et,3-yl))IYNTAGFYC(Succinimide(1-Et,3-yl))DRC(Succinimide(1-Et,3-yl))KEGFFGNPLAPNPADKC(Succinimide(1-Et,3-yl))K

fold decrease in activity on reduction and alkylation [13]: ~300 fold | IC50 [9]: 430 nM
B4: γ1III4Y819/825-A, reduced (other)
chain: PC(Succinimide(1-Et,3-yl))QC(Succinimide(1-Et,3-yl))NDNIDPNAVGNC(Succinimide(1-Et,3-yl))NRLTGEC(Succinimide(1-Et,3-yl))LKC(Succinimide(1-Et,3-yl))IANTAGFAC(Succinimide(1-Et,3-yl))DRC(Succinimide(1-Et,3-yl))KEGFFGNPLAPNPADKC(Succinimide(1-Et,3-yl))K

IC50 [9]: 3 nM | fold reduction in activity against wild-type γ1III4 [16]: 30 to 60 fold
B5: γ1III4Y819-A (other)
chain: PCQCNDNIDPNAVGNCNRLTGECLKCIANTAGFYCDRCKEGFFGNPLAPNPADKCK

IC50 [9]: 1.5 nM | fold reduction in activity against wild-type γ1III4 [16]: 30 to 60 fold
B6: γ1III4Y819/825-A (other)
chain: PCQCNDNIDPNAVGNCNRLTGECLKCIANTAGFACDRCKEGFFGNPLAPNPADKCK
